This note sets out measurements from the supplement of paper PMC5998384.

Data set [1] deals with HeLa Kyoto. In words: solubility in G1/S (NP-40 vs SDS abundance) (log2 ratio); higher = more soluble. The following applies: cell cycle stage: G1/S.
Data set [2] concerns HeLa Kyoto. In words: solubility change mitosis vs G1/S (difference of NP-40 vs SDS log2 ratios) (log2 ratio difference); higher = more soluble in mitosis.
For data set [3], the system named is HeLa Kyoto. In words: thermal stability score vs G1/S (z-score of summed log2 fold changes over temperatures); higher = more thermally stable than in G1/S.
The subject of data set [4] is HeLa Kyoto. In words: melting temperature (median over replicates), in situ; higher = more thermally stable.
[5] abbreviates: cell cycle stage: early G1 (4.5 h after nocodazole release).
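For melting temperature (median over replicates), in situ in this document: HeLa Kyoto cells synchronized by double thymidine or nocodazole block, proteins quantified by TMT10plex mass spectrometry, three independent biological replicates.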
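For solubility change mitosis vs G1/S (difference of NP-40 vs SDS log2 ratios) in this document: synchronized HeLa Kyoto cells (double thymidine block for G1/S, nocodazole release for mitosis), protein amounts in NP-40 versus SDS lysates quantified by mass spectrometry, three biological replicates.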
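For solubility in G1/S (NP-40 vs SDS abundance) in this document: HeLa Kyoto cells arrested at G1/S by double thymidine block, proteins quantified by TMT10plex mass spectrometry in mild NP-40 versus SDS extracts, three biological replicates.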
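For thermal stability score vs G1/S (z-score of summed log2 fold changes over temperatures) in this document: synchronized HeLa Kyoto cells, proteins quantified by TMT10plex mass spectrometry, three biological replicates, mitosis taken 0.5 h after nocodazole release, G1/S directly after double thymidine block.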

Consider “MAAVRGLRVSVKAEAPAGPALGLPSPEAESGVDRGEPEPMEVEEGELEIVPVRRSLKELIPDTSRRYENKAGSFITGIDVTSKEAIEKKEQRAKRFHFRSEVNLAQRNVALDRDMMKKAIPKVRLETIYICGVDEMSTQDVFSYFKEYPPAHIEWLDDTSCNVVWLDEMTATRALINMSSLPAQDKIRSRDASEDKSAEKRKKDKQEDSSDDDEAEEGEVEDENSSDVELDTLSQVEEESLLRNDLRPANKLAKGNRLFMRFATKDDKKELGAARRSQYYMKYGNPNYGGMKGILSNSWKRRYHSRRIQRDVIKKRALIGDDVGLTSYKHRHSGLVNVPEEPIEEEEEEEEEEEEEEEEDQDMDADDRVVVEYHEELPALKQPRERSASRRSSASSSDSDEMDYDLELKMISTPSPKKSMKMTMYADEVESQLKNIRNSMRADSVSSSNIKNRIGNKLPPEKFADVRHLLDEKRQHSRPRPPVSSTKSDIRQRLGKRPHSPEKAFSSNPVVRREPSSDVHSRLGVPRQDSKGLYADTREKKSGNLWTRLGSAPKTKEKNTKKVDHRAPGAEEDDSELQRAWGALIKEKEQSRQKKSRLDNLPSLQIEVSRESSSGSEAES [NCBP3]”, for which the “solubility in G1/S (log2)” value with HeLa Kyoto [1] was -0.537. For the same sequence, in the data set on HeLa Kyoto [2], the “solubility change mitosis (log2)” value worked out at 0.394. Further, the thermal stability score in the data set on HeLa Kyoto [3] (setting [5]) came out at 1.38; with HeLa Kyoto [3] (cell cycle stage: mitosis), 2.56. In addition, the melting temperature in the data set with HeLa Kyoto [4] (cell cycle stage: G1/S) stood at 45.6 °C; with HeLa Kyoto [4] (cell cycle stage: mitosis) it was 49.4 °C.

As to “MAAVSVYAPPVGGFSFDNCRRNAVLEADFAKRGYKLPKVRKTGTTIAGVVYKDGIVLGADTRATEGMVVADKNCSKIHFISPNIYCCGAGTAADTDMTTQLISSNLELHSLSTGRLPRVVTANRMLKQMLFRYQGYIGAALVLGGVDVTGPHLYSIYPHGSTDKLPYVTMGSGSLAAMAVFEDKFRPDMEEEEAKNLVSEAIAAGIFNDLGSGSNIDLCVISKNKLDFLRPYTVPNKKGTRLGRYRCEKGTTAVLTEKITPLEIEVLEETVQTMDTS [PSMB7]”, the “solubility in G1/S (log2)” value in the data set with HeLa Kyoto [1] is 0.376. For the same sequence, the “solubility change mitosis (log2)” value in the data set on HeLa Kyoto [2] was -0.192. Moreover, the thermal stability score in the data set on HeLa Kyoto [3] (setting [5]) is -1.21; in the data set with HeLa Kyoto [3] (cell cycle stage: mitosis) it was -2.39. Moreover, the values for the melting temperature with HeLa Kyoto [4] (cell cycle stage: G1/S) and with HeLa Kyoto [4] (cell cycle stage: mitosis) were 60.7 °C and 64.5 °C, respectively.

For “MAAVVALSLRRRLPATTLGGACLQASRGAQTAAATAPRIKKFAIYRWDPDKAGDKPHMQTYEVDLNKCGPMVLDALIKIKNEVDSTLTFRRSCREGICGSCAMNINGGNTLACTRRIDTNLNKVSKIYPLPHMYVIKDLVPDLSNFYAQYKSIEPYLKKKDESQEGKQQYLQSIEEREKLDGLYECILCACCSTSCPSYWWNGDKYLGPAVLMQAYRWMIDSRDDFTEERLAKLQDPFSLYRCHTIMNCTRTCPKGLNPGKAIAEIKKMMATYKEKKASV [SDHB]”, the “solubility in G1/S (log2)” value in the data set on HeLa Kyoto [1] stood at 0.659. Besides, the “solubility change mitosis (log2)” value in the data set with HeLa Kyoto [2] is -0.00338. In addition, the thermal stability score with HeLa Kyoto [3] (setting [5]) is -1.86; in the data set on HeLa Kyoto [3] (cell cycle stage: mitosis), -2.8. In addition, the values for the melting temperature in the data set on HeLa Kyoto [4] (cell cycle stage: G1/S) and in the data set with HeLa Kyoto [4] (cell cycle stage: mitosis) were 54.7 °C and 56.3 °C, respectively.

Consider “MAAVVLAATRLLRGSGSWGCSRLRFGPPAYRRFSSGGAYPNIPLSSPLPGVPKPVFATVDGQEKFETKVTTLDNGLRVASQNKFGQFCTVGILINSGSRYEAKYLSGIAHFLEKLAFSSTARFDSKDEILLTLEKHGGICDCQTSRDTTMYAVSADSKGLDTVVALLADVVLQPRLTDEEVEMTRMAVQFELEDLNLRPDPEPLLTEMIHEAAYRENTVGLHRFCPTENVAKINREVLHSYLRNYYTPDRMVLAGVGVEHEHLVDCARKYLLGVQPAWGSAEAVDIDRSVAQYTGGIAKLERDMSNVSLGPTPIPELTHIMVGLESCSFLEEDFIPFAVLNMMMGGGGSFSAGGPGKGMFSRLYLNVLNRHHWMYNATSYHHSYEDTGLLCIHASADPRQVREMVEIITKEFILMGGTVDTVELERAKTQLTSMLMMNLESRPVIFEDVGRQVLATRSRKLPHELCTLIRNVKPEDVKRVASKMLRGKPAVAALGDLTDLPTYEHIQTALSSKDGRLPRTYRLFR [PMPCA]”, for which, in the data set on HeLa Kyoto [1], the “solubility in G1/S (log2)” value was -0.0271. Besides, the “solubility change mitosis (log2)” value in the data set with HeLa Kyoto [2] is -0.174. For the same sequence, the thermal stability score was 0.057 in the data set with HeLa Kyoto [3] (setting [5]) and -1.17 with HeLa Kyoto [3] (cell cycle stage: mitosis). For the same sequence, the melting temperature in the data set on HeLa Kyoto [4] (cell cycle stage: G1/S) turned out to be 52.2 °C; with HeLa Kyoto [4] (cell cycle stage: mitosis), 51.8 °C.

Turning to “MACLLETPIRMSVLSEVTASSRHYVDRLFDPDPQKVLQGVIDMKNAVIGNNKQKANLIVLGAVPRLLYLLQQETSSTELKTECAVVLGSLAMGTENNVKSLLDCHIIPALLQGLLSPDLKFIEACLRCLRTIFTSPVTPEELLYTDATVIPHLMALLSRSRYTQEYICQIFSHCCKGPDHQTILFNHGAVQNIAHLLTSLSYKVRMQALKCFSVLAFENPQVSMTLVNVLVDGELLPQIFVKMLQRDKPIEMQLTSAKCLTYMCRAGAIRTDDNCIVLKTLPCLVRMCSKERLLEERVEGAETLAYLIEPDVELQRIASITDHLIAMLADYFKYPSSVSAITDIKRLDHDLKHAHELRQAAFKLYASLGANDEDIRKKIIETENMMDRIVTGLSESSVKVRLAAVRCLHSLSRSVQQLRTSFQDHAVWKPLMKVLQNAPDEILVVASSMLCNLLLEFSPSKEPILESGAVELLCGLTQSENPALRVNGIWALMNMAFQAEQKIKADILRSLSTEQLFRLLSDSDLNVLMKTLGLLRNLLSTRPHIDKIMSTHGKQIMQAVTLILEGEHNIEVKEQTLCILANIADGTTAKDLIMTNDDILQKIKYYMGHSHVKLQLAAMFCISNLIWNEEEGSQERQDKLRDMGIVDILHKLSQSPDSNLCDKAKMALQQYLA [ARMC8]”, the “solubility in G1/S (log2)” value in the data set on HeLa Kyoto [1] is -0.0698. The “solubility change mitosis (log2)” value in the data set on HeLa Kyoto [2] is -0.195. In addition, the thermal stability score is -0.497 in the data set with HeLa Kyoto [3] (setting [5]) and 0.122 in the data set on HeLa Kyoto [3] (cell cycle stage: mitosis). In addition, the values for the melting temperature in the data set with HeLa Kyoto [4] (cell cycle stage: G1/S) and in the data set on HeLa Kyoto [4] (cell cycle stage: mitosis) were 51.1 °C and 51 °C, respectively.
